Experimental data published in patent US20070041944A1, “Treating tumors by ENH dislocation of ID proteins” (THE TRUSTEES OF COLUMBIA UNIVERSITY IN THE CITY OF NEW YORK, priority 2005, published 2007).

Tests used:
[1] = system: GST-δHLHId2; test: GST pull-down assay with GST-Id2 lacking the HLH domain; format: binding; settings: in vitro-translated 35S-labeled ENH (FIG. 2B Right)
Method: (§1) GST Pull-Down Assay, Western Blot, and Coimmunoprecipitation: GST fusion proteins were purified from BL21 Star (Invitrogen). GST pull-down assay was performed as described in lavarone, A. et al., (1994), Genes Dev., 8:1270-1284. For Wetern blot analysis, cellular pellets were lysed in ice-cold RIPA buffer (50 mM Tris, pH 7.5/150 mM NaCl/1% Nonidet P-40/0.5% sodium deoxycholate/0.1% SDS) containing Complete Mini protease inhibitor pellet (Roche) and 1 mM PMSF. Lysates were electrophoresed on SDS/PAGE gels and transferred to nitrocellulose membrane (Amersham Pharmacia Biotech). Membranes were stained with antibodies against ENH, Id2 (Santa Cruz Biotechnology), and α-tubulin (Sigma), and blots were developed by using ECLWestem Blotting Detection System (Amersham Pharmacia Biotech). The anti-ENH antibody is a rabbit polyclonal that was produced in collaboration with Zymed against a peptide that is fully conserved in the mouse sequence (KQQNGPPRKHI (SEQ ID NO:1)). Coimmunoprecipitation of Id2 and ENH from cells transfected with pcDNA.3-Id2 and p3XFlag-ENH was performed as described (lavarone, A. et al., (2004), Nature, 432:1040-1045).
(§2) To validate the specificity of the binding between ENH and Id2 and identify the domains that mediate this interaction, GST fusion proteins and in vitro-translated proteins in pull-down assays.

[2] = system: endogenous Id2 in SK-N-SH cells; test: Subcellular localization of endogenous Id2 after ectopic Flag-ENH (immunofluorescence); format: cell-based, human; settings: SK-N-SH transiently transfected with Flag-ENH (FIG. 4B)
Method: Quantitative Analysis of Subcellular Localization of Id2 and siRNA Experiments: SK-N-SH-Flag-Id2 cells untreated or treated with RA for 48 h were fixed in 4% paraformaldehyde. Flag-Id2 and endogenous ENH were immunostained by using Flag-M2 (Sigma) and ENH antibodies, respectively. SK-N-SH cells were transfected with vector or p3XFlag-ENH and immunostained by using Flag-M2 and Id2 (Zymed) antibodies. For silencing of ENH, ENH siRNA (siGenome Smartpool reagent M-006930-00) and control, nontargeting (siGenome Smartpool reagent D-001206-13) siRNA mixtures were purchased from Dharmacon. SK-N-SH cells stably expressing Flag-Id2 were treated with vehicle control or RA for 48 h and transfected with 60 nM siRNAs by using Lipofectamine 2000 (Invitrogen). Thirty-six hours after transfection cells were fixed in 4% paraformaldehyde and immunostained by using Flag-M2 antibodies. Parallel cultures were analyzed by Western blot. Secondary antibodies were FITC- or Cy3-conjugated anti-rabbit and Cy3-conjugated anti-mouse (Jackson ImmunoResearch). Nuclei were counterstained with DAPI. Slides were mounted in 90% glycerol in PBS and analyzed on an Olympus epifluorescence microscope. The percentage of cells displaying Id2 staining in the nucleus was scored by counting at least 500 cells from triplicate samples. […]

[3] = system: SK-N-SH cells; test: BrdU incorporation study; format: cell-based, human; settings: BrdU 6 h and 14 h
Method: BrdU Incorporation Study: SK-N-SH cells were plated in Lab-Tek Chamber Slides (Nalge Nunc Intl.). Cells were transfected with plasmids expressing the empty vector, Id2, ENH, or both and an EGFP expression vector to identify transfected cells. After 24 h, cells were labeled with 10 μM BrdU for 6 h and 14 h, fixed, and stained with anti-BrdU antibody (Roche) for 1 h at room temperature. Secondary antibody was donkey anti-mouse, Cy3-conjugated (Jackson hnmunoResearch). Nuclei were counterstained with DAPI. Cells were examined on an Olympus epifluorescence microscope. BrdU-positive cells were scored by counting at least 500 GFP-positive cells in three independent experiments.
A well known function of Id2 is the ability to enhance cell proliferation by promoting the transition from G1 to S phase of the cell cycle. Therefore, it was asked whether ENH inhibited cell proliferation and opposed Id2-mediated entry into S phase. […] Next SK-N-SH was transfected with ENH and Id2 in the presence of a GFP expression plasmid and measured the rate of DNA synthesis by incorporation of BrdU of the successfully transfected, GFP-positive cells.

[4] = target: T1, Id2 (Homo sapiens, UniProt Q02363); test: Coimmunoprecipitation of Id2 and Flag-tagged ENH in transfected Cos-1 cells; format: binding; settings: Cos-1 cells transfected with Id2 and Flag-tagged ENH
T1 construct: expressed in transfected cells; host or cells: Cos-1
T1 sequence (Q02363 1-134): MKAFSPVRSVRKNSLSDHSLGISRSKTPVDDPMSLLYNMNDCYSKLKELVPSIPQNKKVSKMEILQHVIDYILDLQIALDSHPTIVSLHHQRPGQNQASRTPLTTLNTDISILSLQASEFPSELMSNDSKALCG
Method: as §1
To determine whether Id2 binds ENH in vivo, coimmunoprecipitation experiments were performed after transfecting Id2 and Flag-tagged ENH in Cos-1. Anti-Id2 antibodies precipitated full-length Flag-ENH but not Flag-ENHδLIM (FIG. 2C). […]

[5] = target: T2, GST-Id3 (Homo sapiens, UniProt Q02535); test: GST pull-down assay with GST-Id3; format: binding; settings: in vitro-translated 35S-labeled ENH (FIG. 2B Right)
T2 construct: made in house; host or cells: E. coli BL21 Star (Invitrogen)
T2 sequence (Q02535 1-119): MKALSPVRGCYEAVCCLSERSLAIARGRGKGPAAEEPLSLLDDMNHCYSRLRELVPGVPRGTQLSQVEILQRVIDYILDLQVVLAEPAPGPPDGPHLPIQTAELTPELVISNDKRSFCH
Method: as §1
(§3) Given the high homology among the HLH domains of the three Id proteins, it was asked whether Id1 and Id3 could also bind ENH in this assay. Indeed, both GST-Id1 and GST-Id3 bound to full-length ENH (FIG. 2B Right).

[6] = target: T3, GST-Id2 (Homo sapiens, UniProt Q02363); test: GST pull-down assay with GST-Id2; format: binding; settings: in vitro-translated 35S-labeled proteins, autoradiography (FIG. 2B)
T3 construct: made in house; host or cells: E. coli BL21 Star (Invitrogen)
T3 sequence (Q02363 1-134): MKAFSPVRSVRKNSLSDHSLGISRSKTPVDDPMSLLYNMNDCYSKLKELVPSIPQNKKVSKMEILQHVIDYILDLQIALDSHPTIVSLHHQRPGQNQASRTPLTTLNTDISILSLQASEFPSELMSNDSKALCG
Method: as §1, §2

[7] = target: T4, GST-Id1 (Homo sapiens, UniProt P41134); test: GST pull-down assay with GST-Id1; format: binding; settings: in vitro-translated 35S-labeled ENH (FIG. 2B Right)
T4 construct: made in house; host or cells: E. coli BL21 Star (Invitrogen)
T4 sequence (P41134 1-155): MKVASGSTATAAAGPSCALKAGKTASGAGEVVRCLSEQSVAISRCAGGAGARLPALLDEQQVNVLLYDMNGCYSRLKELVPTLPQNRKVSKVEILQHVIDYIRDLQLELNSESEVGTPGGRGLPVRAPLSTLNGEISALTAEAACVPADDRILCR
Method: as §1, §3

- binding of GST-δHLHId2 to ENH [1]: failed to bind
- precipitation by anti-Id2 antibodies ([4]; Western blot for Flag (FIG. 2C)): precipitated
- Id2 in Flag immunoprecipitates ([4]; Western blot for Id2 (FIG. 2D)): contained Id2
- binding of GST-Id3 to ENH [5]: bound
- binding of GST-Id2 to ENH constructs [6]: bound efficiently
- binding of GST-Id1 to ENH [7]: bound
B1: ENH: actin cytoskeleton-associated PDZ-LIM protein ENH (Enigma Homologue), full-length, SEQ ID NO:4; also used Flag-tagged (protein, listed as Homo sapiens)
chain: MSNYSVSLVGPAPWGFRLQGGKDFNMPLTISSLKDGGKAAQANVRIGDVVLSIDGINAQGMTHLEAQNKIKGCTGSLNMTLQRASAAPKPEPVPVQKGEPKEVVKPVPITSPAVSKVTSTNNMAYNKAPRPFGSVSSPKVTSIPSPSSAFTPAHATTSSHASPSPVAAVTPPLFAASGLHANANLSADQSPSALSAGKTAVNVPRQPTVTSVCSETSQELAEGQRRGSQGDSKQQNGPPRKHIVERYTEFYHVPTHSDASKKRLIEDTEDWRPRTGTTQSRSFRILAQITGTEHLKESEADNTKKANNSQEPSPQLASSVASTRSMPESLDSPTSGRPGVTSLTTAAAFKPVGSTGVIKSPSWQRPNQGVPSTGRISNSATYSGSVAPANSALGQTQPSDQDTLVQRAEHIPAGKRTPMCAHCNQVIRGPFLVALGKSWHPEEFNCAHCKNTMAYIGFVEEKGALYCELCYEKFFAPECGRCQRKILGEVINALKQTWHVSCFVCVACGKPIRNNVFHLEDGEPYCETDYYALFGTICHGCEFPIEAGDMFLEALGYTWHDTCFVCSVCCESLEGQTFFSKKDKPLCKKHAHSVNF
- subcellular localization of endogenous Id2 [2]: translocation of Id2 to the cytoplasm
- Id2-mediated stimulation of DNA synthesis ([3]; ENH and Id2 cotransfected): abrogated
- S phase entry (BrdU incorporation of GFP-positive cells) ([3]; ectopic ENH): strongly inhibited
